PMC10888616, “Pleiotropic Effects of PhaR Regulator in Bradyrhizobium diazoefficiens Microaerobic Metabolism”

Key:
[1] = molecular target: recombinant untagged PhaR protein of Bradyrhizobium diazoefficiens (Bradyrhizobium diazoefficiens); assay: SEC; Superdex 75 10/300 GL, mIVT buffer at pH 8 (40 mM Tris-HCl, 150 mM KCl, 0.1 mM EDTA, 0.1 mM DTT), 200 uL of untagged PhaR at 5 to 30 uM, 0.5 mL/min; tetramer to monomers; the monomer peak increased at lower concentrations
PhaR [2] = molecular target: T1, PhaR (Bradyrhizobium diazoefficiens USDA 110, UniProt Q89XT0 1-197); assay: EMSA; mutation did not affect interaction at 1-2 uM PhaR; mIVT buffer: 40 mM Tris-HCl pH 7.0, 150 mM KCl, 0.1 mM EDTA, 0.1 mM DTT; 10 uL, 2 ng DNA, 0-2 uM PhaR, 30 min room temperature; 6% native PAGE 0.5X TBE, SYBR Gold; conditions: protein: recombinant; tags: untagged (C-terminal intein-CBD removed, IMPACT); chain copies: 4; blunt
T1 sequence: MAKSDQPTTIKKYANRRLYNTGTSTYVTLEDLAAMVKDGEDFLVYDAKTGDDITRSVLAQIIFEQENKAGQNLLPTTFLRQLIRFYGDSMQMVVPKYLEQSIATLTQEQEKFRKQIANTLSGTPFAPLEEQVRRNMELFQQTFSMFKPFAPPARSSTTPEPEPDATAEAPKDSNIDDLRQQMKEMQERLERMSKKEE

PhaR [3] = molecular target: T1, PhaR; assay: EMSA; shift at 0.5 uM PhaR; mIVT buffer: 40 mM Tris-HCl pH 7.0, 150 mM KCl, 0.1 mM EDTA, 0.1 mM DTT; 10 uL, 2 ng DNA, 0-2 uM PhaR, 30 min room temperature; 6% native PAGE 0.5X TBE, SYBR Gold; conditions: protein: recombinant; tags: untagged (C-terminal intein-CBD removed, IMPACT); chain copies: 4; blunt
PhaR [4] = molecular target: T1, PhaR; assay: EMSA; mIVT buffer: 40 mM Tris-HCl pH 7.0, 150 mM KCl, 0.1 mM EDTA, 0.1 mM DTT; 10 uL, 2 ng DNA, 0-2 uM PhaR, 30 min room temperature; 6% native PAGE 0.5X TBE, SYBR Gold; conditions: protein: recombinant; tags: untagged (C-terminal intein-CBD removed, IMPACT); chain copies: 4; blunt

“recombinant untagged PhaR protein of Bradyrhizobium diazoefficiens (natural protein)” was tested, and the stoichiometry N [1] was 4.

B1: blr4358 oligo, long PhaR box mutated (blr4358_EMSA_2) (dsDNA)
DNA 1: CGCCGGATCAGCAATAAAATATAAATTAATATAAGAAGGTCTCCAA
DNA 2: TTGGAGACCTTCTTATATTAATTTATATTTTATTGCTGATCCGGCG
B1: binds (PhaR [2]).

B2: phaP1 67 bp wild type (5155_2) (dsDNA)
DNA 1: GATCTAGTTTTTGTGCGACGCACAAGATTCTTGACTTTTTTGTGCGTTGCACTAATTGTGGGCAGAG
DNA 2: CTCTGCCCACAATTAGTGCAACGCACAAAAAAGTCAAGAATCTTGTGCGTCGCACAAAAACTAGATC
B2: binds (PhaR [3]).

B3: blr4358 oligo wild type (blr4358_EMSA_1) (dsDNA)
DNA 1: CGCCGGATCAGCCCGCCAAGATCAAGGCCGCGAAGAAGGTCTCCAA
DNA 2: TTGGAGACCTTCTTCGCGGCCTTGATCTTGGCGGGCTGATCCGGCG
B3: binds (PhaR [4]).
